According to paper PMC9173640, “PI Kinase-EhGEF2-EhRho5 axis contributes to LPA stimulated macropinocytosis in Entamoeba histolytica” (PLoS Pathogens, 2022):

Molecular target: T1, GST-RBD (Rho binding domain of mRhotekin) ( (printed as mRhotekin), UniProt Q8C6B2 17-98)
T1 construct: also called RBD-GST; source: E. coli BL21(DE3), purified (GST-sepharose beads); construct a gift from Dr. Richard Cerione
T1 sequence (looked up): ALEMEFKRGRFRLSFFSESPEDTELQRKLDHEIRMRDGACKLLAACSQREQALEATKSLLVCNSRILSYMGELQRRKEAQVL
Assay: pull-down; GST-RBD/GST-PBD bound to sepharose beads incubated 2 hrs at 4°C with lysates (10 mM MgCl2, 5 mM EDTA) of serum starved HA-EhRho5 trophozoites, with or without 15 uM LPA for 15 mins, followed by 100 nM wortmannin or DMSO; blot with anti-HA
Conditions: one partner purified

B1: HA-EhRho5 (natural protein)
chain: not shown
notes: EhRho5 (EhRacD), Rho family GTPase of Entamoeba histolytica, Acc no; EHI_012240; PCR primers run from the ATG to the stop codon; cloned in EhEx-HA with SmaI-XhoI; Expressed under the amoebic cysteine synthase promoter; also called EhRacD; source: E. histolytica HM1:IMSS trophozoites, stably transfected (EhEx-HA), in lysate
With B1 the “fold increase in binding after LPA treatment against untreated trophozoites” value was 7 fold.
